According to US6998240B2, “Screen for selective inhibitors or activators of Smad protein function” (Wisconsin Alumni Research Foundation, priority 2001, dated 2006):
Blank lines part the entries; values can stand above or below the substance they belong to.

Experiments:
[1] = target: T1, Phosphorylated Smad2/4 Complex (Homo sapiens, UniProt Q15796); assay: microplate solid-phase assay; Smad2P4 0.125 ug/well; biotinylated GST-CBP 1:500, duplicate well
[2] = target: T1, Phosphorylated Smad2/4 Complex; assay: microplate solid-phase assay; Smad2P4 0.125 ug/well; biotinylated GST-CBP 1:2000
[3] = target: T1, Phosphorylated Smad2/4 Complex; assay: microplate solid-phase assay; Smad2P4 0.25 ug/well; biotinylated GST-CBP 1:500
[4] = target: T1, Phosphorylated Smad2/4 Complex; assay: microplate solid-phase assay; Smad2P4 0.25 ug/well; biotinylated GST-CBP 1:1000
[5] = target: T1, Phosphorylated Smad2/4 Complex; assay: microplate solid-phase assay; Smad2P4 0.50 ug/well; biotinylated GST-CBP 1:2000
[6] = target: unphosphorylated Smad2 (His-tagged, full length) (UniProt Q15796); assay: microplate solid-phase assay; Smad2 0.25 ug/well; biotinylated GST-CBP 1:2000, duplicate well
[7] = target: T1, Phosphorylated Smad2/4 Complex; assay: microplate solid-phase assay; Smad2P4 0.25 ug/well; biotinylated GST-CBP 1:2000
[8] = target: T1, Phosphorylated Smad2/4 Complex; assay: microplate solid-phase assay; Smad2P4 0.25 ug/well; biotinylated GST-CBP 1:1000, duplicate well
[9] = target: unphosphorylated Smad2 (His-tagged, full length) (UniProt Q15796); assay: microplate solid-phase assay; Smad2 0.50 ug/well; biotinylated GST-CBP 1:500
[10] = target: T1, Phosphorylated Smad2/4 Complex; assay: microplate solid-phase assay; Smad2P4 0.50 ug/well; biotinylated GST-CBP 1:1000, duplicate well
[11] = target: unphosphorylated Smad2 (His-tagged, full length) (UniProt Q15796); assay: microplate solid-phase assay; Smad2 0.25 ug/well; biotinylated GST-CBP 1:1000, duplicate well
[12] = target: T1, Phosphorylated Smad2/4 Complex; assay: microplate solid-phase assay; Smad2P4 0.50 ug/well; biotinylated GST-CBP 1:500, duplicate well
[13] = target: T1, Phosphorylated Smad2/4 Complex; assay: microplate solid-phase assay; Smad2P4 0.125 ug/well; biotinylated GST-CBP 1:2000, duplicate well
[14] = target: T1, Phosphorylated Smad2/4 Complex; assay: microplate solid-phase assay; Smad2P4 0.50 ug/well; biotinylated GST-CBP 1:2000, duplicate well
[15] = target: T1, Phosphorylated Smad2/4 Complex; assay: microplate solid-phase assay; Smad2P4 0.125 ug/well; biotinylated GST-CBP 1:1000
[16] = target: unphosphorylated Smad2 (His-tagged, full length) (UniProt Q15796); assay: microplate solid-phase assay; Smad2 0.50 ug/well; biotinylated GST-CBP 1:500, duplicate well
[17] = target: T1, Phosphorylated Smad2/4 Complex; assay: microplate solid-phase assay; Smad2P4 0.125 ug/well; biotinylated GST-CBP 1:500
[18] = target: T1, Phosphorylated Smad2/4 Complex; assay: microplate solid-phase assay; Smad2P4 0.25 ug/well; biotinylated GST-CBP 1:2000, duplicate well
[19] = target: unphosphorylated Smad2 (His-tagged, full length) (UniProt Q15796); assay: microplate solid-phase assay; Smad2 0.50 ug/well; biotinylated GST-CBP 1:2000, duplicate well
[20] = target: T1, Phosphorylated Smad2/4 Complex; assay: microplate solid-phase assay, biotinylated GST-CBP, streptavidin-AP
[21] = target: unphosphorylated Smad2 (His-tagged, full length) (UniProt Q15796); assay: microplate solid-phase assay; Smad2 0.25 ug/well; biotinylated GST-CBP 1:500, duplicate well
[22] = target: T1, Phosphorylated Smad2/4 Complex; assay: microplate solid-phase assay; Smad2P4 0.125 ug/well; biotinylated GST-CBP 1:1000, duplicate well
[23] = target: unphosphorylated Smad2 (His-tagged, full length) (UniProt Q15796); assay: microplate solid-phase assay; Smad2 0.25 ug/well; biotinylated GST-CBP 1:500
[24] = target: T1, Phosphorylated Smad2/4 Complex; assay: microplate solid-phase assay; Smad2P4 0.25 ug/well; biotinylated GST-CBP 1:500, duplicate well
[25] = target: unphosphorylated Smad2 (His-tagged, full length) (UniProt Q15796); assay: microplate solid-phase assay; Smad2 0.25 ug/well; biotinylated GST-CBP 1:2000
[26] = target: unphosphorylated Smad2 (His-tagged, full length) (UniProt Q15796); assay: microplate solid-phase assay; Smad2 0.50 ug/well; biotinylated GST-CBP 1:1000, duplicate well
[27] = target: unphosphorylated Smad2 (His-tagged, full length) (UniProt Q15796); assay: microplate solid-phase assay; Smad2 0.50 ug/well; biotinylated GST-CBP 1:1000
[28] = target: T1, Phosphorylated Smad2/4 Complex; assay: microplate solid-phase assay; Smad2P4 0.50 ug/well; biotinylated GST-CBP 1:500
[29] = target: unphosphorylated Smad2 (His-tagged, full length) (UniProt Q15796); assay: microplate solid-phase assay; Smad2 0.50 ug/well; biotinylated GST-CBP 1:2000
[30] = target: T1, Phosphorylated Smad2/4 Complex; assay: microplate solid-phase assay; Smad2P4 0.50 ug/well; biotinylated GST-CBP 1:1000
[31] = target: unphosphorylated Smad2 (His-tagged, full length) (UniProt Q15796); assay: microplate solid-phase assay; Smad2 0.25 ug/well; biotinylated GST-CBP 1:1000
[32] = target: phosphorylated Smad2 (His-tagged, full length, from Sf9 cells co-infected with Alk5 T204D virus) (UniProt Q15796); assay: HTRF competition against 500 nM biotinylated FAST peptide
[33] = target: phosphorylated Smad2 (His-tagged, full length, from Sf9 cells co-infected with Alk5 T204D virus) (UniProt Q15796); assay: HTRF, biotin-FAST binding to Smad2-P, no inhibitor

relative light units (RLU) [1]: 74300 RLU | relative light units (RLU) [2]: 82200 RLU | relative light units (RLU) [3]: 204000 RLU | relative light units (RLU) [4]: 181000 RLU | relative light units (RLU) [5]: 303000 RLU | relative light units (RLU) [6]: 4340 RLU | relative light units (RLU) [7]: 176000 RLU | relative light units (RLU) [8]: 182000 RLU | relative light units (RLU) [9]: 26600 RLU | relative light units (RLU) [10]: 323000 RLU | relative light units (RLU) [11]: 7830 RLU | relative light units (RLU) [12]: 236000 RLU | relative light units (RLU) [13]: 85100 RLU | relative light units (RLU) [14]: 285000 RLU | relative light units (RLU) [15]: 82900 RLU | relative light units (RLU) [16]: 26300 RLU | relative light units (RLU) [17]: 72000 RLU | relative light units (RLU) [18]: 162000 RLU | relative light units (RLU) [19]: 11000 RLU | fold more CBP bound than by an equivalent amount of unphosphorylated Smad [20]: > 30 fold | relative light units (RLU) [21]: 8900 RLU | relative light units (RLU) [22]: 82300 RLU | relative light units (RLU) [23]: 11100 RLU | relative light units (RLU) [24]: 191000 RLU | relative light units (RLU) [25]: 6600 RLU | relative light units (RLU) [26]: 23500 RLU | relative light units (RLU) [27]: 23000 RLU | relative light units (RLU) [28]: 358000 RLU | relative light units (RLU) [29]: 11300 RLU | relative light units (RLU) [30]: 306000 RLU | relative light units (RLU) [31]: 6680 RLU
Substance: biotinylated GST-CBP protein (from UniProt P08515 1-218)

IC50 [32]: 250 nM
Substance: GST-trx-FAST fusion protein (FAST SIM peptide aptamer on thioredoxin scaffold) (from UniProt O75593 327-350) (designed binder)

Average Normalized Counts [33]: 1880 counts
Substance: biotinylated FAST peptide (24 mer, Smad interaction motif of human FAST) (from UniProt O75593 327-350)
